Measured values: patent US20240000957A1 (published 2024)
*1 amine or outer side, *2 acyl side, *3 side chain or, on linkers, in order; H or OH if unused. Bridges are numbered along the chain shown (N, C = ends). Where no end group is shown, it is not given here. [ ]: non-standard residue; d: D form. TATA = O=C(CC[*:1])N1CN(C(=O)CC[*:2])CN(C(=O)CC[*:3])C1; 2Nal = N[C@@H](Cc1ccc2ccccc2c1)C(=O)O; βAla = NCCC(=O)O; Sar = CNCC(=O)O

B1: Compound 15 (peptide)
peptide: ACMNDWWCAMGWKCA
modifications: linker 2-8-14 via TATA
B2: Compound 18 (peptide)
peptide: DLRCGGDPRCAYMNVCA
modifications: linker 4-10-16 via TATA
B3: Compound 85 (peptide)
peptide: ACPLVNPLCLEPGWTCAKR
modifications: linker 2-9-16 via TATA; not fully specified (C-terminus)
B4: Compound 93 (peptide)
peptide: ACPLVNPLCLHPG[2Nal]SCRGQ
modifications: linker 2-9-16 via TATA; not fully specified (C-terminus); printed as ACPLVNPLCLHPG(2Nal)SCRGQ
B5: Compound 94 (peptide)
peptide: ACPLVNPLCLTPGWTCTNT
modifications: linker 2-9-16 via TATA; not fully specified (C-terminus)
B6: Compound 64 (peptide)
peptide: ACPLVNPLCLHPGWTCA
modifications: linker 2-9-16 via TATA; not fully specified (C-terminus)
B7: Compound 57 (peptide)
peptide: ACPLVNPLCLVPGWSCA
modifications: linker 2-9-16 via TATA; not fully specified (C-terminus)
B8: Compound 54 (peptide)
peptide: ACPLVNPLCLHPGWICA
modifications: linker 2-9-16 via TATA; not fully specified (C-terminus)
B9: Compound 53 (peptide)
peptide: ACPMVNPLCLHPGWICA
modifications: linker 2-9-16 via TATA; not fully specified (C-terminus)
B10: Compound 86 (peptide)
peptide: ACPLVNPLCLHPGWSCA
modifications: linker 2-9-16 via TATA; not fully specified (C-terminus)
B11: Compound 82 (peptide)
peptide: ACPLVNPLCLAPGWTCA
modifications: linker 2-9-16 via TATA; not fully specified (C-terminus)
B12: Compound 55 (peptide)
peptide: ACPLVNPLCLHPGWRCA
modifications: linker 2-9-16 via TATA; not fully specified (C-terminus)
B13: Compound 97 (peptide)
peptide: ACPMVNPLCLHPGWTCA
modifications: linker 2-9-16 via TATA
B14: Compound 84 (peptide)
peptide: ACPLVNPLCLEPGWTCA
modifications: linker 2-9-16 via TATA; not fully specified (C-terminus)
B15: Compound 81 (peptide)
peptide: TPRCPLVNPLCLMPGWTCA
modifications: linker 4-11-18 via TATA; not fully specified (C-terminus)
B16: Compound 17 (peptide)
peptide: [βAla][Sar][Sar][Sar][Sar][Sar][Sar][Sar][Sar][Sar][Sar]ACVPDRRCAYMNVC
modifications: linker 13-19-25 via TATA; not fully specified (C-terminus); printed as (β-Ala)-Sar10-ACVPDRRCAYMNVC
B17: Compound 88 (peptide)
peptide: Ac-CPLVNPLCLHPGWSCRGQ
modifications: linker 1-8-15 via TATA; not fully specified (C-terminus); printed as Ac-CPLVNPLCLHPGWSCRGQ
B18: Compound 16 (peptide)
peptide: ACVPDRRCAYMNVCA
modifications: linker 2-8-14 via TATA

Each binder was assayed against T1, Human EphA2 (Ecto), C-terminal polyHis (Human, UniProt P29317 24-537) (assay: FP competition vs Reference Compound C).
T1 construct: extracellular domain; R&D systems 3035-A2 or in-house
T1 sequence (P29317 24-537): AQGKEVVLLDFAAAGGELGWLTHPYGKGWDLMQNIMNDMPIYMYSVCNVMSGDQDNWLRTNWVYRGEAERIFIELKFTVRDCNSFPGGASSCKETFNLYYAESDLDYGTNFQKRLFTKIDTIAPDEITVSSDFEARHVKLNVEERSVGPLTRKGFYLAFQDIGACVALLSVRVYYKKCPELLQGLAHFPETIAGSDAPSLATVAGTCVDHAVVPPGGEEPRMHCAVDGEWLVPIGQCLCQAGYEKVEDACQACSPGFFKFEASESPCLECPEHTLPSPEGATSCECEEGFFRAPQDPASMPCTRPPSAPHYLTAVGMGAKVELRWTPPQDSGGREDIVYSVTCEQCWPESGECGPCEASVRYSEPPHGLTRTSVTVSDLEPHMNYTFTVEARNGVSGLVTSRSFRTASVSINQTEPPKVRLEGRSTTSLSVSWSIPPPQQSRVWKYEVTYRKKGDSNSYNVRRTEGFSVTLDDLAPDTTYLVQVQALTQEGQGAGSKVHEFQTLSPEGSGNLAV
In the case of B1, the Ki is reported as 278 nM.
In the case of B2, the Ki is reported as 70.8 nM.
B3 was tested, and the Ki was 10.9 nM.
B4 gave a Ki of 228 nM.
For B5, the Ki was 13.2 nM.
B6 was tested, and the Ki was 30 nM.
For B7, the Ki was 35.4 nM.
For B8, the Ki was 15.2 nM.
In the case of B9, the Ki is reported as 15.4 nM.
In the case of B10, the Ki is reported as 56.1 nM.
B11 showed a Ki of 46.2 nM.
In the case of B12, the Ki is reported as 20.6 nM.
B13 showed a Ki of 20 nM.
Binder B14 has a Ki of 53.9 nM.
B15 gave a Ki of 9.8 nM.
B16 showed a Ki of 85 nM.
In the case of B17, the Ki is reported as 1.64 nM.
Binder B18 has a Ki of 70 nM.
